From patent US20250295803A1, “5T4 ANTIBODY-DRUG CONJUGATES AND USES THEREOF” (EXELIXIS, INC., priority 2022, published 2025) come the findings set out here.

The target in data set [1] is T1, HEK293 and CHO cells transfected to express mouse 5T4 (Mus musculus, UniProt Q9Z0L0).
T1 construct: expressed in transfected cells; host or cells: HEK293 and CHO
T1 sequence (Q9Z0L0 32-426): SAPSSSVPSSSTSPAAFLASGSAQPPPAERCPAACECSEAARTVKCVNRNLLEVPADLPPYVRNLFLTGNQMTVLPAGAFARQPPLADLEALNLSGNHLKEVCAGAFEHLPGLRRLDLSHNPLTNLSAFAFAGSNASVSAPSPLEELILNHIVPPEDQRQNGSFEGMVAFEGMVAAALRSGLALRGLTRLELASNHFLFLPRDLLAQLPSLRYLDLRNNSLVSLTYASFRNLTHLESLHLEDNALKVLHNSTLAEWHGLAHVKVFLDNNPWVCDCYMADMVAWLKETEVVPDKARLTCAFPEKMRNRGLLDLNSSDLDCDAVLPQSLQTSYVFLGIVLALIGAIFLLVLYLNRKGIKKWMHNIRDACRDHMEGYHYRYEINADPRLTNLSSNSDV
Description: Cell binding to transfected HEK293 and CHO cells, mouse 5T4. The data set is classed as cell-based. The protocol: Unconjugated antibodies were tested for their ability to bind to HEK293 and CHO cells transfected to express human, cyno, rat, or mouse 5T4.

A short description of data set [2]: Standup monolayer adsorption chromatography (SMAC) developability. The data set is classed as physicochemical. The following applies: 1 mg/mL in Dulbecco's PBS pH 7.4. The protocol:
Antibodies that were selected for binding to 5T4, such as those described in Examples 2 and 3, were tested by various methods to assess developability. For example, various chromatographic methods, including size exclusion chromatography (SEC), hydrophobic interaction chromatography (HIC), and standup monolayer adsorption chromatography (SMAC) were employed to assess factors, such as monomer percentage, solubility, and antibody aggregation or precipitation.
Standup monolayer adsorption chromatography (SMAC) analysis was performed using a 4.6 mm ID×300 mm Zenix SEC 300 column (Sepax Technologies, PN 213300P-4630) with a 4.6 mm×50 mm guard column (PN 213300P-4605) on an Agilent 1100 HPLC. Antibodies were normalized to 1 mg/mL concentration in Dulbecco's PBS (pH 7.4, without Ca^2+/Mg^2+) and clarified via centrifugation to pellet particulates while still retaining soluble aggregates. The mobile phase buffer was Dulbecco's PBS (pH 7.4, without Ca^2+/Mg^2+) at 2× concentration (diluted from 10× stock concentration). For each sample, 10 μL was loaded and isocratically eluted at 0.4 mL/minute over 32 minutes at ambient temperature. Absorbance was monitored at 280 nm. Sample retention time was calculated and compared to a set of standard controls to identify antibodies with increased retention time (increased propensity to form aggregates and/or increased hydrophobic/electrostatic interactions) as the column stationary phase along with mobile phase selection promotes secondary interactions in addition to molecular sizing. Data analysis was performed using Agilent ChemStation B.04.03 SP1.

Data set [3] has as its target T2, rat 5T4 on transfected HEK293 and CHO cells (rat, UniProt Q5PQV5 32-426).
T2 construct: whole, on cells
T2 sequence (looked up): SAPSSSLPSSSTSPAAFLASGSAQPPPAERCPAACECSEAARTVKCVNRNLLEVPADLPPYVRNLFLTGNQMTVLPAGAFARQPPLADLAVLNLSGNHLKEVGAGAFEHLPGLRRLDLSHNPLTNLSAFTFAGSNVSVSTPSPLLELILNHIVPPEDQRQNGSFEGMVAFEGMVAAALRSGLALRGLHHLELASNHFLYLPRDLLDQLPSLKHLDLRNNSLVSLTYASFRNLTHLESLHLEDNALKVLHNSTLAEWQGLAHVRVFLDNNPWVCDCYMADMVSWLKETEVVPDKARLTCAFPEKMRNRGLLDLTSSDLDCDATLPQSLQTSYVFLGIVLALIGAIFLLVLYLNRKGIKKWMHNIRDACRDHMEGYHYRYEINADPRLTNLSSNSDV
The data set is described as follows: cell binding on transfected HEK293 and CHO cells.

Data set [4] concerns the target T3, unconjugated human TPBG/5T4 protein with a c-terminal polyhistidine and Avi tag (AcroBiosystems Cat. No. … (human, UniProt Q13641 32-355)).
T3 construct: Bought protein; also called Acro TPGH52E5; Acro Catalog No. TPGH52E; not shown: C-terminal polyhistidine and Avi tag
T3 sequence: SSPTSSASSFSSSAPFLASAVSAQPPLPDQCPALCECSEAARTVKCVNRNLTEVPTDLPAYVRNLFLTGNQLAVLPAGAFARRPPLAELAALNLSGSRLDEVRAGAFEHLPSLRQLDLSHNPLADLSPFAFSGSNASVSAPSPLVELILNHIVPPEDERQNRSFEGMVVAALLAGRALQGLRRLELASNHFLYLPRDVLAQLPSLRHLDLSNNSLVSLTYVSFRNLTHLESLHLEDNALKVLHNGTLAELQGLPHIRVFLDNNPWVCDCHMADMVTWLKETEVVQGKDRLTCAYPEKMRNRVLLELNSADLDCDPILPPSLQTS
Description: ELISA on coated human 5T4 His-Avi (Acro TPG-H52E5); antibody condition: pH 5.5 Day 1. Here is the method:
(§1) A. Normal Binding Unconjugated antibodies were tested for their ability to bind to human 5T4 (hu5T4) using ELISA. On Day 1, unconjugated human TPBG/5T4 protein with a c-terminal polyhistidine and Avi (AVITAG™) tag (AcroBiosystems (Newark, DE, USA), Cat. No. TPG-H52E5) was diluted 2 μg/mL in PBS, mixed thoroughly, plated 100 μL per well in a 96-well plate (Nunc MAXISORP®) and incubated overnight at 4° C.

Data set [5] has as its target T3, unconjugated human TPBG/5T4 protein …. The data set is described as follows: ELISA on coated human 5T4 His-Avi (Acro TPG-H52E5); antibody condition: pH 5.5 Day 0. The protocol: as §1
2. Low pH Stress Test. Several unconjugated antibodies were tested for their ability to bind to 5T4 using ELISA under acidic (low pH) conditions. Solutions of 1 mg/mL to 10 mg/mL of antibody in […] were prepared and stored at 37° C. for 1 to 2 weeks.

B1: mAbA4: 5T4 antibody comprising VH of SEQ ID NO:25 and VL of SEQ ID NO:26 (antibody, V domains shown)
VH: EVQLVESGGGLVQPGGSLRLSCAASGFTFSRYYIHWVRQAPGKGLEWVAFISPGGSYTYYADSVKGRFTISADTSKNTAYLQMNSLRAEDTAVYYCAREYYSMGVLDYWGQGTLVTVSS
VL: DIQMTQSPSSLSASVGDRVTITCRASQSVSSAVAWYQQKPGKAPKLLIYSASSLYSGVPSRFSGSRSGTDFTLTISSLQPEDFATYYCQQAYESPYTFGQGTKVEIK
modifications: Antibody mAbA4 VH Sequence; Antibody mAbA4 VL Sequence
Consider B1, for which the “reactivity to cells transfected to express mouse 5T4” value (shortened to “reactivity to cells transfected”) in data set [1] is “not to cells transfected to express rat or mouse 5T4”. Also, the “developability based on SMAC analysis” value in data set [2] was “strong developability”.

B2: mAbA15: 5T4 antibody comprising VH of SEQ ID NO:44 and VL of SEQ ID NO:45 (antibody, V domains shown)
VH: EVQLVESGGGLVQPGGSLRLSCAASGFTFSSYYIHWVRQAPGKGLEWVAYITSTGSYTEYADSVKGRFTISADTSKNTAYLQMNSLRAEDTAVYYCARYDRSTRYSGLDYWGQGTLVTVSS
VL: DIQMTQSPSSLSASVGDRVTITCRASQSVSSAVAWYQQKPGKAPKLLIYSASSLYSGVPSRFSGSRSGTDFTLTISSLQPEDFATYYCQQAYATPVTFGQGTKVEIK
modifications: Antibody mAbA15 VH Sequence; Antibody mAbA15 VL Sequence
Turning to B2, in data set [1], the “reactivity to cells transfected” value was “not to cells transfected to express rat or mouse 5T4”. Further, the “developability based on SMAC analysis” value in data set [2] is given as “strong developability”.

B3: mAbA17 (antibody, V domains shown)
VH: EVQLVESGGGLVQPGGSLRLSCAASGFTFSRYWIHWVRQAPGKGLEWVAAIFPYSGSTLYADSVKGRFTISADTSKNTAYLQMNSLRAEDTAVYYCARSPSRSILPSGLDYWGQGTLVTVSS
VL: DIQMTQSPSSLSASVGDRVTITCRASQSVSSAVAWYQQKPGKAPKLLIYSASSLYSGVPSRFSGSRSGTDFTLTISSLQPEDFATYYCQQGDGSPYTFGQGTKVEIKR
notes: also called Antibody mAbA17
For the molecule B3, the binding result in data set [3] is recorded as “no binding”. Also, the EC50 (in general, the concentration needed to bring the measured effect to its halfway point) is 0.159 nM in data set [4] and 0.164 nM in data set [5].

B4: mAbA15 (antibody, V domains shown)
VH: EVQLVESGGGLVQPGGSLRLSCAASGFTFSSYYIHWVRQAPGKGLEWVAYITSTGSYTEYADSVKGRFTISADTSKNTAYLQMNSLRAEDTAVYYCARYDRSTRYSGLDYWGQGTLVTVSS
VL: DIQMTQSPSSLSASVGDRVTITCRASQSVSSAVAWYQQKPGKAPKLLIYSASSLYSGVPSRFSGSRSGTDFTLTISSLQPEDFATYYCQQAYATPVTFGQGTKVEIKR
notes: also called Antibody mAbA15
As to B4, in data set [3], the binding result is reported as “no binding”. Also, the EC50 in data set [4] came to 0.134 nM; in data set [5], 0.124 nM.

B5: mAbA17: 5T4 antibody comprising VH of SEQ ID NO:62 and VL of SEQ ID NO:63 (antibody, V domains shown)
VH: EVQLVESGGGLVQPGGSLRLSCAASGFTFSRYWIHWVRQAPGKGLEWVAAIFPYSGSTLYADSVKGRFTISADTSKNTAYLQMNSLRAEDTAVYYCARSPSRSILPSGLDYWGQGTLVTVSS
VL: DIQMTQSPSSLSASVGDRVTITCRASQSVSSAVAWYQQKPGKAPKLLIYSASSLYSGVPSRFSGSRSGTDFTLTISSLQPEDFATYYCQQGDGSPYTFGQGTKVEIK
modifications: Antibody mAbA17 VH Sequence; Antibody mAbA17 VL Sequence
On to B5, for which, in data set [1], the “reactivity to cells transfected” value is listed as “not to cells transfected to express rat or mouse 5T4”. Also, the “developability based on SMAC analysis” value in data set [2] is “strong developability”.

B6: mAbA4 (antibody, V domains shown)
VH: EVQLVESGGGLVQPGGSLRLSCAASGFTFSRYYIHWVRQAPGKGLEWVAFISPGGSYTYYADSVKGRFTISADTSKNTAYLQMNSLRAEDTAVYYCAREYYSMGVLDYWGQGTLVTVSS
VL: DIQMTQSPSSLSASVGDRVTITCRASQSVSSAVAWYQQKPGKAPKLLIYSASSLYSGVPSRFSGSRSGTDFTLTISSLQPEDFATYYCQQAYESPYTFGQGTKVEIKR
notes: also called Antibody mAbA4
B6: in data set [3], the binding result is reported as “no binding”. In addition, the EC50 in data set [4] was 0.132 nM; in data set [5] it was 0.133 nM.
